Usually IC50 stands for the point on the concentration scale where inhibition reaches its midpoint.

Among the data in patent US20070224189A1 (published 2007) are IC50 values, retold here.

This assay has as its target extracellular region of human V158 FcγRIIIa fused with glutathione S-Transferase (GST) (human, UniProt P08637 17-208). The assay is described as follows: AlphaScreen competition.

B1: WT alemtuzumab (antibody)
chain 1: not shown
chain 2: not shown
As to B1, the concentration for half-maximal inhibition (IC50) turned out to be 4.6 nM.
